Experimental data reported in patent US20100260668A1 (published 2010).

B1: DVD680 (bispecific antibody, human IgG1, kappa)
heavy: not shown
light: DIQMTQSPSSLSASVGDRVTITCRASQDVSTAVAWYQQKPGKAPKLLIYSASFLYSGVPSRFSGSGSGTDFTLTISSLQPEDFATYYCQQSYTTPPTFGQGTKVEIKRTVAAPSVFIFPPDIQMTQSPSSLSASVGDRVTITCKASENVVSYVSWYQQKPGKAPKLLIYGASNRNTGVPSRFSGSGSGTDFTLTISSLQPEDFATYYCGQSYNYPYTFGQGTKLEIKRTVAAPSVFIFPPSDEQLKSGTASVVCLLNNFYPREAKVQWKVDNALQSGNSQESVTEQDSKDSTYSLSSTLTLSKADYEKHKVYACEVTHQGLSSPVTKSFNRGEC
notes: DVD-Ig; HC linker short, LC linker long; vectors V1/V2
B2: DVD712 (bispecific antibody, human IgG1, kappa)
heavy: not shown
light: DIQMTQSPSSLSASVGDRVTITCRASQVIRRSLAWYQQKPGKAPKLLIYAASNLASGVPSRFSGSGSGTDFTLTISSLQPEDFATYYCQQSNTSPLTFGQGTKVEIKRTVAAPDIQMTQSPSSVSASVGDRVTITCRASQGISSWLAWYQQKPGKAPNLLIYEASSLQSGVPSRFGGSGSGTDFTLTISSLQPEDFATYYCQQANGFPWTFGQGTKVEIKRTVAAPSVFIFPPSDEQLKSGTASVVCLLNNFYPREAKVQWKVDNALQSGNSQESVTEQDSKDSTYSLSSTLTLSKADYEKHKVYACEVTHQGLSSPVTKSFNRGEC
notes: DVD-Ig; N-term VD AB071 (VEGF), C-term VD AB012 (HGF); HC linker short, LC linker short; vectors V1/V2
B3: DVD674 (bispecific antibody, human IgG1, kappa)
heavy: not shown
light: DIQMTQSPSSLSASVGDRVTITCRASQDVSTAVAWYQQKPGKAPKLLIYSASFLYSGVPSRFSGSGSGTDFTLTISSLQPEDFATYYCQQSYTTPPTFGQGTKVEIKRTVAAPDIQMTQSPSSLSASVGDRVTITCKASENVVSYVSWYQQKPGKAPKLLIYGASNRNTGVPSRFSGSGSGTDFTLTISSLQPEDFATYYCGQSYNYPYTFGQGTKLEIKRTVAAPSVFIFPPSDEQLKSGTASVVCLLNNFYPREAKVQWKVDNALQSGNSQESVTEQDSKDSTYSLSSTLTLSKADYEKHKVYACEVTHQGLSSPVTKSFNRGEC
notes: DVD-Ig; HC linker long, LC linker short; vectors V1/V2
B4: DVD682 (bispecific antibody, human IgG1, kappa)
heavy: not shown
light: DIQMTQSPSSLSASVGDRVTITCRASQVIRRSLAWYQQKPGKAPKLLIYAASNLASGVPSRFSGSGSGTDFTLTISSLQPEDFATYYCQQSNTSPLTFGQGTKVEIKRTVAAPSVFIFPPDIQMTQSPSSLSASVGDRVTITCKASENVVSYVSWYQQKPGKAPKLLIYGASNRNTGVPSRFSGSGSGTDFTLTISSLQPEDFATYYCGQSYNYPYTFGQGTKLEIKRTVAAPSVFIFPPSDEQLKSGTASVVCLLNNFYPREAKVQWKVDNALQSGNSQESVTEQDSKDSTYSLSSTLTLSKADYEKHKVYACEVTHQGLSSPVTKSFNRGEC
notes: DVD-Ig; N-term VD AB071 (VEGF), C-term VD AB079 (HGF); HC linker short, LC linker long; vectors V1/V2
B5: DVD676 (bispecific antibody, human IgG1, kappa)
heavy: not shown
light: DIQMTQSPSSLSASVGDRVTITCRASQVIRRSLAWYQQKPGKAPKLLIYAASNLASGVPSRFSGSGSGTDFTLTISSLQPEDFATYYCQQSNTSPLTFGQGTKVEIKRTVAAPDIQMTQSPSSLSASVGDRVTITCKASENVVSYVSWYQQKPGKAPKLLIYGASNRNTGVPSRFSGSGSGTDFTLTISSLQPEDFATYYCGQSYNYPYTFGQGTKLEIKRTVAAPSVFIFPPSDEQLKSGTASVVCLLNNFYPREAKVQWKVDNALQSGNSQESVTEQDSKDSTYSLSSTLTLSKADYEKHKVYACEVTHQGLSSPVTKSFNRGEC
notes: DVD-Ig; N-term VD AB071 (VEGF), C-term VD AB079 (HGF); HC linker long, LC linker short; vectors V1/V2
B6: DVD672 (bispecific antibody, human IgG1, kappa)
heavy: not shown
light: DIQMTQSPSSLSASVGDRVTITCSASQDISNYLNWYQQKPGKAPKVLIYFTSSLHSGVPSRFSGSGSGTDFTLTISSLQPEDFATYYCQQYSTVPWTFGQGTKVEIKRTVAAPDIQMTQSPSSLSASVGDRVTITCKASENVVSYVSWYQQKPGKAPKLLIYGASNRNTGVPSRFSGSGSGTDFTLTISSLQPEDFATYYCGQSYNYPYTFGQGTKLEIKRTVAAPSVFIFPPSDEQLKSGTASVVCLLNNFYPREAKVQWKVDNALQSGNSQESVTEQDSKDSTYSLSSTLTLSKADYEKHKVYACEVTHQGLSSPVTKSFNRGEC
notes: as for B3
B7: DVD678 (bispecific antibody, human IgG1, kappa)
heavy: not shown
light: DIQMTQSPSSLSASVGDRVTITCSASQDISNYLNWYQQKPGKAPKVLIYFTSSLHSGVPSRFSGSGSGTDFTLTISSLQPEDFATYYCQQYSTVPWTFGQGTKVEIKRTVAAPSVFIFPPDIQMTQSPSSLSASVGDRVTITCKASENVVSYVSWYQQKPGKAPKLLIYGASNRNTGVPSRFSGSGSGTDFTLTISSLQPEDFATYYCGQSYNYPYTFGQGTKLEIKRTVAAPSVFIFPPSDEQLKSGTASVVCLLNNFYPREAKVQWKVDNALQSGNSQESVTEQDSKDSTYSLSSTLTLSKADYEKHKVYACEVTHQGLSSPVTKSFNRGEC
notes: as for B1
B8: DVD710 (bispecific antibody, human IgG1, kappa)
heavy: not shown
light: DIQMTQSPSSLSASVGDRVTITCRASQDVSTAVAWYQQKPGKAPKLLIYSASFLYSGVPSRFSGSGSGTDFTLTISSLQPEDFATYYCQQSYTTPPTFGQGTKVEIKRTVAAPDIQMTQSPSSVSASVGDRVTITCRASQGISSWLAWYQQKPGKAPNLLIYEASSLQSGVPSRFGGSGSGTDFTLTISSLQPEDFATYYCQQANGFPWTFGQGTKVEIKRTVAAPSVFIFPPSDEQLKSGTASVVCLLNNFYPREAKVQWKVDNALQSGNSQESVTEQDSKDSTYSLSSTLTLSKADYEKHKVYACEVTHQGLSSPVTKSFNRGEC
notes: DVD-Ig; HC linker short, LC linker short; vectors V1/V2
B9: DVD643 (bispecific antibody, human IgG1, kappa)
heavy: not shown
light: DIQMTQSPSSVSASVGDRVTITCRASQGISSWLAWYQQKPGKAPNLLIYEASSLQSGVPSRFGGSGSGTDFTLTISSLQPEDFATYYCQQANGFPWTFGQGTKVEIKRTVAAPSVFIFPPDIQMTQSPSSLSASVGDRVTITCRASQDVSTAVAWYQQKPGKAPKLLIYSASFLYSGVPSRFSGSGSGTDFTLTISSLQPEDFATYYCQQSYTTPPTFGQGTKVEIKRTVAAPSVFIFPPSDEQLKSGTASVVCLLNNFYPREAKVQWKVDNALQSGNSQESVTEQDSKDSTYSLSSTLTLSKADYEKHKVYACEVTHQGLSSPVTKSFNRGEC
notes: DVD-Ig; HC linker long, LC linker long; vectors V1/V2
B10: DVD655 (bispecific antibody, human IgG1, kappa)
heavy: not shown
light: B9 light
notes: as for B1
B11: DVD657 (bispecific antibody, human IgG1, kappa)
heavy: not shown
light: DIQMTQSPSSVSASVGDRVTITCRASQGISSWLAWYQQKPGKAPNLLIYEASSLQSGVPSRFGGSGSGTDFTLTISSLQPEDFATYYCQQANGFPWTFGQGTKVEIKRTVAAPSVFIFPPDIQMTQSPSSLSASVGDRVTITCRASQVIRRSLAWYQQKPGKAPKLLIYAASNLASGVPSRFSGSGSGTDFTLTISSLQPEDFATYYCQQSNTSPLTFGQGTKVEIKRTVAAPSVFIFPPSDEQLKSGTASVVCLLNNFYPREAKVQWKVDNALQSGNSQESVTEQDSKDSTYSLSSTLTLSKADYEKHKVYACEVTHQGLSSPVTKSFNRGEC
notes: DVD-Ig; N-term VD AB012 (HGF), C-term VD AB071 (VEGF); HC linker short, LC linker long; vectors V1/V2
B12: DVD651 (bispecific antibody, human IgG1, kappa)
heavy: not shown
light: DIQMTQSPSSVSASVGDRVTITCRASQGISSWLAWYQQKPGKAPNLLIYEASSLQSGVPSRFGGSGSGTDFTLTISSLQPEDFATYYCQQANGFPWTFGQGTKVEIKRTVAAPDIQMTQSPSSLSASVGDRVTITCRASQVIRRSLAWYQQKPGKAPKLLIYAASNLASGVPSRFSGSGSGTDFTLTISSLQPEDFATYYCQQSNTSPLTFGQGTKVEIKRTVAAPSVFIFPPSDEQLKSGTASVVCLLNNFYPREAKVQWKVDNALQSGNSQESVTEQDSKDSTYSLSSTLTLSKADYEKHKVYACEVTHQGLSSPVTKSFNRGEC
notes: DVD-Ig; N-term VD AB012 (HGF), C-term VD AB071 (VEGF); HC linker long, LC linker short; vectors V1/V2
B13: DVD649 (bispecific antibody, human IgG1, kappa)
heavy: not shown
light: DIQMTQSPSSVSASVGDRVTITCRASQGISSWLAWYQQKPGKAPNLLIYEASSLQSGVPSRFGGSGSGTDFTLTISSLQPEDFATYYCQQANGFPWTFGQGTKVEIKRTVAAPDIQMTQSPSSLSASVGDRVTITCRASQDVSTAVAWYQQKPGKAPKLLIYSASFLYSGVPSRFSGSGSGTDFTLTISSLQPEDFATYYCQQSYTTPPTFGQGTKVEIKRTVAAPSVFIFPPSDEQLKSGTASVVCLLNNFYPREAKVQWKVDNALQSGNSQESVTEQDSKDSTYSLSSTLTLSKADYEKHKVYACEVTHQGLSSPVTKSFNRGEC
notes: as for B3
B14: DVD645 (bispecific antibody, human IgG1, kappa)
heavy: not shown
light: B11 light
notes: DVD-Ig; N-term VD AB012 (HGF), C-term VD AB071 (VEGF); HC linker long, LC linker long; vectors V1/V2
B15: DVD663 (bispecific antibody, human IgG1, kappa)
heavy: not shown
light: DIQMTQSPSSLSASVGDRVTITCKASENVVSYVSWYQQKPGKAPKLLIYGASNRNTGVPSRFSGSGSGTDFTLTISSLQPEDFATYYCGQSYNYPYTFGQGTKLEIKRTVAAPDIQMTQSPSSLSASVGDRVTITCRASQVIRRSLAWYQQKPGKAPKLLIYAASNLASGVPSRFSGSGSGTDFTLTISSLQPEDFATYYCQQSNTSPLTFGQGTKVEIKRTVAAPSVFIFPPSDEQLKSGTASVVCLLNNFYPREAKVQWKVDNALQSGNSQESVTEQDSKDSTYSLSSTLTLSKADYEKHKVYACEVTHQGLSSPVTKSFNRGEC
notes: DVD-Ig; N-term VD AB079 (HGF), C-term VD AB071 (VEGF); HC linker short, LC linker short; vectors V1/V2

Target: T1, HGF-His tag (UniProt P14210 32-728)
T1 construct: Bought antigen coated on the ELISA plate; not shown: His tag
T1 sequence (P14210 32-728 limits assumed): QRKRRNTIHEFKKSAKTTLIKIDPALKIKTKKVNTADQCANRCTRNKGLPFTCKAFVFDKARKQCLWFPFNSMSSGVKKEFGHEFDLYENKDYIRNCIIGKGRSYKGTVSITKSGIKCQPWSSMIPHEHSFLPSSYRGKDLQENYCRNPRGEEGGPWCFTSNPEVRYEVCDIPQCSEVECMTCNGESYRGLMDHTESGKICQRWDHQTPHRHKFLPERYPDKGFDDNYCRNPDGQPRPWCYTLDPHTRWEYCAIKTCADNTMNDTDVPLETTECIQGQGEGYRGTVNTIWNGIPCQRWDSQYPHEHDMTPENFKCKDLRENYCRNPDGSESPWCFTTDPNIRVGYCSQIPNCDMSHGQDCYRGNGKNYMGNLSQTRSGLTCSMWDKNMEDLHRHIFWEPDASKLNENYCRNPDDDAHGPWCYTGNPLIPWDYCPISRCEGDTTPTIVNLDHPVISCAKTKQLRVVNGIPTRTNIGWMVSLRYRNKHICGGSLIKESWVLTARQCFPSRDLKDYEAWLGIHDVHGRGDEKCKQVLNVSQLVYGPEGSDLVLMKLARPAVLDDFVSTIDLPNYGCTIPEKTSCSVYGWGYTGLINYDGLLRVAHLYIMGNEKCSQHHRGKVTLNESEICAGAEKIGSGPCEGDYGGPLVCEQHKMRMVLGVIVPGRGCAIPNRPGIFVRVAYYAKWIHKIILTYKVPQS
Assay: direct bind ELISA (C-term VD)

| EC50 [µM] | Binder |
| --- | --- |
| 0.00517 | B1 |
| 0.0372 | B2 |
| 0.0176 | B3 |
| 0.00655 | B4 |
| 0.0358 | B5 |
| 0.0229 | B6 |
| 0.00469 | B7 |
| 0.0178 | B8 |

Target: T2, VEGF 1-165 aa (UniProt P15692 27-191)
T2 construct: Bought antigen coated on the ELISA plate
T2 sequence (P15692 other isoform, or with tags, fused parts or gaps limits assumed): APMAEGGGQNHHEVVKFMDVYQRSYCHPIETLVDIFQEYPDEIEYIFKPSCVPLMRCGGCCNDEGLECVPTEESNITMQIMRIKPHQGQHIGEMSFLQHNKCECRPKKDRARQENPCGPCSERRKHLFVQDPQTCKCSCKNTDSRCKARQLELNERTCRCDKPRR
Assay: direct bind ELISA (C-term VD)
Protocol: (§1) Enzyme Linked Immunosorbent Assays to screen for antibodies that bind a desired target antigen were performed as follows. […] Plates were washed four times with PBS containing 0.02% Tween 20. Plates were blocked by the addition of 300 μL/well blocking solution (non-fat dry milk powder, various retail suppliers, diluted to 2% in PBS) for ½ hour at room temperature. Plates were washed four times after blocking with PBS containing 0.02% Tween 20.
(§2) Alternatively, one hundred microliters per well of 10 μg/ml of Histidine (His) tagged desired target antigen (R&D Systems, Minneapolis, Minn.) was added to ELISA plates coated with monoclonal mouse anti-polyHistidine antibody as described above and incubated for 1 hour at room temperature. Wells were washed four times with PBS containing 0.02% Tween 20.
(§3) Plates were washed 4 times with PBS containing 0.02% Tween 20.

| EC50 [µM] | Binder |
| --- | --- |
| 0.175 | B9 |
| 0.0929 | B10 |
| 0.358 | B11 |
| 0.341 | B12 |
| 0.186 | B13 |

Target: T1, HGF-His tag
Assay: direct bind ELISA (N-term VD);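 note: ELISA screen of antibodies for binding to plate-immobilized target antigen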
Protocol: as §1, §2, §3

| EC50 [µM] | Binder |
| --- | --- |
| 0.00026 | B9 |
| 0.00019 | B10 |
| 0.00017 | B14 |
| 0.00031 | B11 |
| 0.00011 | B12 |
| 0.00026 | B15 |
| 0.00015 | B13 |

Target: T2, VEGF 1-165 aa
Assay: direct bind ELISA (N-term VD);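 note: ELISA screen of antibodies for binding to plate-immobilized target antigen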
Protocol: as §1, §2, §3

| EC50 [µM] | Binder |
| --- | --- |
| 0.0126 | B1 |
| 0.0642 | B2 |
| 0.0106 | B3 |
| 0.0531 | B4 |
| 0.13 | B5 |
| 0.0161 | B6 |
| 0.00065 | B7 |
| 0.00243 | B8 |
